# Data published in patent publication US20240336909.
# Experiments:
# [1] = biological target: AxCT mask27 EGFR EH104 L071 version 1
# [2] = biological target: AxCT mask27 EGFR EH104 L059 version 1
# [3] = biological target: AxCT mask27 EGFR EH104 L070 version 1
# [4] = biological target: AxCT mask27 EGFR EH104 L061 version 1
# [5] = biological target: AxCT mask27 EGFR EH104 L056 version 1
# [6] = biological target: AxCT mask27 EGFR EH104 L040 version 1
# [7] = biological target: AxCT mask27 EpCAM H90.2 L059 version 1
# [8] = biological target: AxCT mask27 EGFR EH104 L068 version 1
# [9] = biological target: AxCT mask27 EGFR EH104 L066 version 1
# [10] = biological target: AxCT mask27 EGFR EH104 L054 version 1
# [11] = biological target: AxCT mask27 EpCAM H90 L001 version 1
# [12] = biological target: AxCT mask27 EpCAM H90.2 L060 version 1
# [13] = biological target: AxCT mask27 EGFR EH104 L065 version 1
# [14] = biological target: AxCT mask27 EGFR EH104 L058 version 1
# [15] = biological target: AxCT mask27 EpCAM H90.2 L075 version 1
# [16] = biological target: AxCT mask27 EpCAM H90.2 L040 version 1
# [17] = biological target: AxCT mask27 EGFR EH104 L064 version 1
# [18] = biological target: AxCT mask27 EpCAM H90.2 L076 version 1
# [19] = biological target: AxCT mask27 EpCAM H90.2 L064 version 1
# [20] = biological target: AxCT mask27 EGFR EH104 L043 version 1
# [21] = biological target: AxCT mask27 EGFR EH104 L063 version 1
# [22] = biological target: AxCT mask27 EpCAM H90.2 L063 version 1
# [23] = biological target: AxCT mask27 EGFR EH104 L041 version 1
# [24] = biological target: AxCT mask27 EpCAM H90.2 L061 version 1
# [25] = biological target: AxCT mask27 EpCAM H90.2 L043 version 1
# [26] = biological target: AxCT mask27 EGFR EH104 L001 version 1
# [27] = biological target: AxCT mask27 EGFR EH104 L072 version 1
# [28] = biological target: AxCT mask27 EGFR EH104 L060 version 1
# [29] = biological target: AxCT mask27 EGFR EH104 L069 version 1
# [30] = biological target: AxCT mask27 EGFR EH104 L067 version 1
# [31] = biological target: AxCT mask27 EpCAM H90.2 NCLV
# [32] = biological target: AxCT mask27 EGFR EH104 L057 version 1
# [33] = biological target: AxCT mask27 EpCAM H90.2 L073 version 1
# [34] = biological target: AxCT mask27 EGFR EH104 L062 version 1
# [35] = biological target: AxCT mask27 EpCAM H90.2 L041 version 1
# [36] = biological target: AxCT mask27 EGFR EH104 L073 version 1
# [37] = biological target: AxCT mask27 EGFR EH104 L055 version 1
protein,measurement,setting,value
MMP-12 (protein) GPVWRKHYITYRINNYTPDMNREDVDYAIRKAFQVWSNVTPLKFSKINTGMADILVVFARGAHGDFHAFDGKGGILAHAFGPGSGIGGDAHFDEDEFWTTHSGGTNLFLTAVHEIGHSLGLGHSSDPKAVMFPTYKYVDINTFRLSADDIRGIQSLYGDPKENQRLPNPDNSEPALCDPNLSFDAVTTVGNKIFFFKDRFFWLKVSERPKTSVNLISSLWPTLPSGIEAAYEIEARNQVFLFKDDKYWLISNLRPEPNYPKSIHSFGFPNFVKKIDAAVFNPRFYRTYFFVDNQYWRYDERRQMMDPGYPKLITKNFQGIGPKIDAVFYSKNKYYYFFQGSNQFEYDFLLQRITKTLKSNSWFGC,Percent cleavage,[1],51%
same,Percent cleavage,[2],62%
same,Percent cleavage,[3],19%
same,Percent cleavage,[4],49%
same,Percent cleavage,[5],12%
same,Percent cleavage,[6],13%
same,Percent cleavage,[7],71%
same,Percent cleavage,[8],9%
same,Percent cleavage,[9],16%
same,Percent cleavage,[10],30%
same,Percent cleavage,[11],91%
same,Percent cleavage,[12],16%
same,Percent cleavage,[13],68%
same,Percent cleavage,[14],9%
same,Percent cleavage,[15],0%
same,Percent cleavage,[16],0%
same,Percent cleavage,[17],34%
same,Percent cleavage,[18],0%
same,Percent cleavage,[19],36%
same,Percent cleavage,[20],0%
same,Percent cleavage,[21],31%
same,Percent cleavage,[22],33%
same,Percent cleavage,[23],0%
same,Percent cleavage,[24],64%
same,Percent cleavage,[25],0%
same,Percent cleavage,[26],68%
same,Percent cleavage,[27],48%
same,Percent cleavage,[28],18%
same,Percent cleavage,[29],63%
same,Percent cleavage,[30],26%
same,Percent cleavage,[31],0%
same,Percent cleavage,[32],18%
same,Percent cleavage,[33],36%
same,Percent cleavage,[34],51%
same,Percent cleavage,[35],0%
same,Percent cleavage,[36],31%
same,Percent cleavage,[37],72%
